Laboratory results as given in publication doi:10.1101/215541, “DHX36 binding at G-rich sites in mRNA untranslated regions promotes translation”.

Target: T1, FH-DHX36 (RHAU, G4R1) (human (expressed in HEK293 T-REx Flp-In …, UniProt Q9H2U1 1-1008))
T1 sequence: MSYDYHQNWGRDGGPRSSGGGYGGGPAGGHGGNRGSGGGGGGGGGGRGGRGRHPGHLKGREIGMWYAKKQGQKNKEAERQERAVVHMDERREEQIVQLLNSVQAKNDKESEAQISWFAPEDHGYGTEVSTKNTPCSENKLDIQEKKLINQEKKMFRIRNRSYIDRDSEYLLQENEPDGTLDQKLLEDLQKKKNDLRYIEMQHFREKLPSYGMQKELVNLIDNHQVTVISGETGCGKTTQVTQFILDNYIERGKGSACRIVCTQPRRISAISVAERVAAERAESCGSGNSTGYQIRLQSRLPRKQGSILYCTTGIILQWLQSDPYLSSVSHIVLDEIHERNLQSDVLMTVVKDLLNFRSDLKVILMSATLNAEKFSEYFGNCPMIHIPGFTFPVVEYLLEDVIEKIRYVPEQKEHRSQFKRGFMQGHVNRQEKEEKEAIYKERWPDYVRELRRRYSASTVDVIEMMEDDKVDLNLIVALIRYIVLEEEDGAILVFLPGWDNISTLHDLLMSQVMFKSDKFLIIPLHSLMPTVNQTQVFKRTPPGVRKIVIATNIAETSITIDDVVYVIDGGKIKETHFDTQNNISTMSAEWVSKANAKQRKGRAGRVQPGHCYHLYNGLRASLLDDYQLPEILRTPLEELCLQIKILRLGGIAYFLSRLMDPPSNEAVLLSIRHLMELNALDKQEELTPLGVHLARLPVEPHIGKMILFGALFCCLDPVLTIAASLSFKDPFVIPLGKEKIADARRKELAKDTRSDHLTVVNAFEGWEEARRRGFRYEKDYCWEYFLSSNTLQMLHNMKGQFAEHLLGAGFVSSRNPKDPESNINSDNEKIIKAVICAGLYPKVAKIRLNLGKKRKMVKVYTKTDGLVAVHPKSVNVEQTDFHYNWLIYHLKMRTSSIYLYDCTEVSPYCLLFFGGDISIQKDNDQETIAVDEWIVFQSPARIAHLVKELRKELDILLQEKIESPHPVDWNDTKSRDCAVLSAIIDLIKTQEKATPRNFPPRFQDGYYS
Assay: MST; 25 nM oligonucleotide, DHX36 up to 50 nM; MST: 1x MST buffer (composition not stated), 0.5% BSA, 5 mM DTT; 25 nM Cy5 oligo (folding buffer for CD oligos: 10 mM Tris pH 7.5, 100 mM KCl, 1 mM EDTA); temperature not stated
Conditions: protein: recombinant, tags: N-terminal FLAG-HA (pFRT-FlagHA vector), label: 5'-Cy5

Binder: AAAAAGCAGCAGGAGCAGCA (ssDNA) [mutated DHX36 RRE for MST]
- binding result (no G4 signature (CD on the longer A10 version)): no binding

Binder: AAAAAGGAGGAGGAGGAGGA (structured_DNA) [DHX36 RRE for MST (G-rich PAR-CLIP motif)]
- binding result (parallel G4 (CD on the longer A10 version)): binds
